Assay results published in patent US4711951A, “Therapeutically active compound and pharmaceutical composition containing the same” (priority 1981, dated 1987).

Assays:
[1] = test system: white mice (male mice of type NMRI); experiment: Blood sugar level in mice after intravenous injection (anthrone method); assay type: in vivo; details: i.v.; for blood sugar level reduced to % of the normal value: in 30 minutes
Method: Test animals were white mice (male mice of type NMRI) having a body weight of 25±2 g. The solutions below were administrated intravenously in the tails of the mice. There were three groups of mice, in which there were three mice each. The solutions contained:
Group A: 0.5 ml 0.9% (w/v) NaCl
Group B: 0.5 ml 0.9% (w/v) NaCl and 5 ug native insulin
Group C: 0.5 ml 0.9% (w/v) NaCl 50 ug insulin-2-pyridyl disulfide derivative synthesized as above.
Blood samples were collected in micro capillary tubes from the corners of the eyes of the mice. The samples were collected 10 minutes before injection and 30, 120, 240 minutes, 7, 15 and 24 hours on injection. The anthrone method was used to determine the carbohydrate content of the samples (Burt J R; Anal Biochem, 9 (1964) p 293-302).

[2] = Half-life of circulating catalase activity in burnt rats (Clark electrode); assay type: in vivo, rats (Sprague Dawley); details: i.v., 20,000 IU, hind paws burnt 5 minutes after injection, catalase activity in blood
Method: (§1) Test animals were white rats (Sprague Dawley) of a body weight of 300-350 g. Two groups of rats (6 individuals each) were separately injected intravenously with 0.5 ml 0.9% (w/v) NaCl containing 20,000 international units (IU) native catalase respectively an amount of catalase-2-dipyridyl disulfide derivative (synthesized as above) corresponding to 20,000 (IU) native catalase. 5 minutes after injection hind paws of all the rats were burnt by dipping into circulating water of +55° C. for 20 seconds. 0.4 ml blood was collected from the left arteriae carotis at the time intervals 2, 15, 30, 60, 120 and 180 minutes. The catalase activity in each blood sample was determined as the amount of oxygen formed per time unit. Measurements were carried out with a Clark electrode by standard procedures.

[3] = test system: white rats (Sprague Dawley), burnt hind paws; experiment: Oedema of the burn, measured as the volume of the paw; assay type: in vivo; details: i.v., amount corresponding to 20,000 IU, in 2 hours
Method: as §1
The oedema of the burn was measured as the volume of the paw. This volume was measured as corresponding deplacement at even time cuts during 3 hours.

[4] = Determination of half-life for circulation in rabbit (superoxide dismutase activity of blood samples); assay type: in vivo; details: i.v., 1 ml of 10 mg/ml
Method: Test animals were white rabbits having a body weight of 2-5 kg. 1 ml native superoxide dismutase (yeast superoxide dismutase, Carlsberg Laboratories, Copenhagen, Denmark) (10 mg/ml) or 1 ml superoxide dismutase-2-pyridyl disulfide derivative (10 mg/ml) was injected intravenously into the rabbits. Both of the solutions were prepared from 0.9% (w/v) NaCl. Blood samples were collected from the ear lobes of the rabbits at the time intervals 5, 10, 20, 30, 60, 90, 120, 150, 180 and 210 minutes. The superoxide dismutase activity of the samples was determined according to Crapo J D, McCord J M and Fridovich I; Methods of Enzymology 53 (1978) p 382-393.

native insulin: native insulin, underivatized base compound used as comparison
time until blood sugar level reached the normal value (value before injection) ([1]; 5 ug native insulin (group B)): 7 h | blood sugar level reduced to % of the normal value ([1]; 5 ug native insulin (group B)): 40 % of the normal value

insulin-2-pyridyl disulfide derivative: insulin reacted with N-succinimidyl-3-(2-pyridyldithio)-propionate (SPDP)
time until blood sugar level returned to normal values ([1]; 50 ug derivative (group C)): > 24 h | blood sugar level reduced to % of the normal value ([1]; 50 ug derivative (group C)): 40 % of the normal value

B1: native catalase: catalase of bovine liver (Sigma C-100), further purified by gel filtration (protein, UniProt P00432 2-527, looked up)
Catalase: ADNRDPASDQMKHWKEQRAAQKPDVLTTGGGNPVGDKLNSLTVGPRGPLLVQDVVFTDEMAHFDRERIPERVVHAKGAGAFGYFEVTHDITRYSKAKVFEHIGKRTPIAVRFSTVAGESGSADTVRDPRGFAVKFYTEDGNWDLVGNNTPIFFIRDALLFPSFIHSQKRNPQTHLKDPDMVWDFWSLRPESLHQVSFLFSDRGIPDGHRHMNGYGSHTFKLVNANGEAVYCKFHYKTDQGIKNLSVEDAARLAHEDPDYGLRDLFNAIATGNYPSWTLYIQVMTFSEAEIFPFNPFDLTKVWPHGDYPLIPVGKLVLNRNPVNYFAEVEQLAFDPSNMPPGIEPSPDKMLQGRLFAYPDTHRHRLGPNYLQIPVNCPYRARVANYQRDGPMCMMDNQGGAPNYYPNSFSAPEHQPSALEHRTHFSGDVQRFNSANDDNVTQVRTFYLKVLNEEQRKRLCENIAGHLKDAQLFIQKKAVKNFSDVHPEYGSRIQALLDKYNEEKPKNAVHTYVQHGSHLSAREKANL
half-life for circulating catalase [2]: 9 min

B2: catalase-2-pyridyl disulfide: purified catalase of bovine liver reacted with SPDP (protein, UniProt P00432 2-527, looked up)
Catalase: ADNRDPASDQMKHWKEQRAAQKPDVLTTGGGNPVGDKLNSLTVGPRGPLLVQDVVFTDEMAHFDRERIPERVVHAKGAGAFGYFEVTHDITRYSKAKVFEHIGKRTPIAVRFSTVAGESGSADTVRDPRGFAVKFYTEDGNWDLVGNNTPIFFIRDALLFPSFIHSQKRNPQTHLKDPDMVWDFWSLRPESLHQVSFLFSDRGIPDGHRHMNGYGSHTFKLVNANGEAVYCKFHYKTDQGIKNLSVEDAARLAHEDPDYGLRDLFNAIATGNYPSWTLYIQVMTFSEAEIFPFNPFDLTKVWPHGDYPLIPVGKLVLNRNPVNYFAEVEQLAFDPSNMPPGIEPSPDKMLQGRLFAYPDTHRHRLGPNYLQIPVNCPYRARVANYQRDGPMCMMDNQGGAPNYYPNSFSAPEHQPSALEHRTHFSGDVQRFNSANDDNVTQVRTFYLKVLNEEQRKRLCENIAGHLKDAQLFIQKKAVKNFSDVHPEYGSRIQALLDKYNEEKPKNAVHTYVQHGSHLSAREKANL
modifications: SPDP 2-pyridyl disulfide derivative
notes: purified catalase of bovine liver reacted with SPDP
half-life for circulating catalase [2]: 34 min | swelling of the burnt paws compared to native catalase [3]: significantly decreased swelling

B3: native superoxide dismutase: yeast superoxide dismutase, Carlsberg Laboratories, Copenhagen, Denmark (protein, UniProt P00445 2-154, looked up)
Superoxide dismutase [Cu-Zn]: VQAVAVLKGDAGVSGVVKFEQASESEPTTVSYEIAGNSPNAERGFHIHEFGDATNGCVSAGPHFNPFKKTHGAPTDEVRHVGDMGNVKTDENGVAKGSFKDSLIKLIGPTSVVGRSVVIHAGQDDLGKGDTEESLKTGNAGPRPACGVIGLTN
half-life for circulation [4]: about 10 minutes

B4: superoxide dismutase-2-pyridyl disulfide derivative: superoxide dismutase from yeast reacted with SPDP (protein, UniProt P00445 2-154, looked up)
Superoxide dismutase [Cu-Zn]: VQAVAVLKGDAGVSGVVKFEQASESEPTTVSYEIAGNSPNAERGFHIHEFGDATNGCVSAGPHFNPFKKTHGAPTDEVRHVGDMGNVKTDENGVAKGSFKDSLIKLIGPTSVVGRSVVIHAGQDDLGKGDTEESLKTGNAGPRPACGVIGLTN
modifications: SPDP 2-pyridyl disulfide derivative
notes: superoxide dismutase from yeast reacted with SPDP
half-life for circulation [4]: 60 min
